Fewer inactive variants are shown than the library holds.
B1: TPR 5TU (parent)
chain: GGAUCUUCUCGAUCUAACAAAAAAGACAAAUCUGCCACAAAGCUUGAGAGCAUCUUCGGAUGCAGAGGCGGCAGCCUUCGGUGGCGCGAUAGCGCCAACGUUCUCAACUAUGACACGCAAAACGCGUGCUCCGUUGAAUGGAGUUUAUCAUG

Variants of: B1
Assay: polymerase ribozyme fitness, log enrichment relative to wild type (log ratio); higher = more active; in vitro selection for triplet polymerase activity
Method in brief: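 Streptavidin-bead capture of gel-excised extended constructs, followed by RT-PCR, closed a single triplicate in vitro selection round. That round began by annealing PCR-built, transcribed mutant libraries of each subunit of a heterodimeric triplet polymerase ribozyme with a biotinylated primer, the partner subunit and triplets, then incubating them frozen at −7 °C. After Illumina sequencing of inputs and outputs, genotypes needed ≥10 input reads and ≥1 read per output. Fitness is the base-2 logarithm of genotype enrichment over wild-type enrichment, using inverse-variance-weighted replicate averages.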

Point of comparison: U102A, “polymerase ribozyme fitness (log ratio)” value -0.854. Against it:
- U101A A115U G141A — lower, -2.17
- U104A G143A — lower, -1.63
- G100U A142C — lower, -4.17
- G100U — lower, -2.58
- G100A — lower, -3.76
- G100C — lower, -3.72
- C103G A120U U146G — lower, -1.37
- C105G G141C — lower, -2.56
- C99U A107G — lower, -4.16
- C99U A107U — lower, -3.88
- U102G U127C — lower, -4.17
- C99A U135A — lower, -2.77
- C99A G143A — lower, -2.02
- C103A A107U U134A — lower, ≤ -4.2
- U102G A120U — lower, -1.94
- U104C A106G — within 0.2 log units, -0.701
- U109C C114U — lower, -3.87
- C99U G117C — higher, 0.786
- C96U G124A A147U — higher, 0.911
- U102G G152U — lower, ≤ -4.2
- A98G U101C G143U C149U — lower, ≤ -4.2
- U102C C131U U134G — lower, -4.13
- C99G U146G — lower, -1.32
- U101G G133U — lower, -2.8
- A97G U101G — higher, 0.358
- A106G A113U U135G — lower, ≤ -4.2
- C105U A120G A122C — higher, 0.479
- C96U C132A — lower, -1.63
- U101G U134A U144C A150U — lower, -4.09
- C103A A150G — lower, -4.09
- A97U G152A — lower, -2.62
- A98G A107U — lower, -3.24
- U104C C116G — higher, 0.144
- A107C A142C — lower, -4.05
- A98U U127G — lower, -3.18
- A106U U135A A150U — lower, -1.22
- C103G U130A — lower, -4.04
- C105A C129G — lower, ≤ -4.2
- A98G G133C — lower, -1.69
- U109A U151A — lower, ≤ -4.2
- C96U U104G — lower, -1.59
- U109A G124A G140C — lower, ≤ -4.2
- U102A A113C — lower, -3.86
- C108G G143C A147C — lower, ≤ -4.2
- C96U U146C — within 0.2 log units, -0.67
- A110C G136U — lower, ≤ -4.2
- C99U U145G — lower, -2.09
- U101G A150G — higher, -0.649
- C99A A120C U148G — lower, ≤ -4.2
- A98U C105A A119G A121C — higher, -0.491
- C99G C116U — within 0.2 log units, -0.76
- A98U C105U — higher, 0.54
- A98U A120U G143C — lower, -2.39
- A107U G141C — lower, -3.87
- C103G A115C A137G C149G — lower, ≤ -4.2
- C108U G136U — lower, -3.41
- A107U C118G A147U C149G U151G — lower, ≤ -4.2
- A107U U135C — lower, -4.04
- U102C C114G — lower, -4.11
- C103A U146C — lower, -1.49
- C99U G141A — higher, -0.231
- C96U U102G U144A A150U — lower, ≤ -4.2
- U101G A115G — within 0.2 log units, -0.695
- C105U — higher, 0.527
- C105A — higher, -0.411
- C105G — within 0.2 log units, -0.829
- C96U C99A G133C G141A — lower, ≤ -4.2
- C99U G126A G143U — lower, -3.55
- A97C C103G C114G — lower, -3.86
- C103A A107C A142C — lower, ≤ -4.2
- U102G A142U — lower, -3.35
- C105A C125A — lower, -3.83
- C96U A147G — lower, -1.18
- C96U A147U — higher, 1.21
- U104G A120C — higher, 0.532
- A97U U104G — within 0.2 log units, -0.956
- A97G G133A — lower, -3.61
- A98G U127C — lower, -3.01
- C99A U134G — lower, -2.57
- C105U G140A — lower, -2.92
- C105A U135C — lower, -2.39
- C103U — higher, -0.357
- C103G — lower, -1.4
- C103A — lower, -1.23
- C99G C108A A110G — lower, ≤ -4.2
- C96U C125A — higher, -0.0844
- C96U C125U — higher, -0.382
- U102G G141C — lower, -3.94
- U101G A120G — higher, -0.0391
- A98U U134G — lower, -2.65
- C103A U109G — lower, -3.53
- U101A C105U C114A — lower, -3.17
- U104C G124U C125A G143U — lower, -3.85
- U102G — lower, -2.51
- U102C — within 0.2 log units, -0.787
- C105U U135A — higher, 0.0587
- A97C A119G — higher, 0.72
- C99U U104G — lower, -1.84
- A107G G140U U151A — lower, ≤ -4.2
- A110G C149G — lower, -3.83
- A97G A98U — higher, -0.253
- U101G G128U U144G — lower, -4
- U104G C118A A122C — lower, -2.35
- A110G U134G — lower, -4.07
- C108U C114U — lower, -4.06
- C99U U104A U109C A115G — lower, -3.79
- G100A G124A — lower, ≤ -4.2
- C105U G124U — higher, -0.374
- A98G U127G G141A — lower, ≤ -4.2
- U109G A110C — lower, ≤ -4.2
- C108U G133U — lower, -3.96
- C99G A113C U135C — lower, ≤ -4.2
- C96U U102C C125U — lower, -2.51
- U102G C116G — lower, -1.67
- A97U U134G — lower, -2.5
- C96U C123U G136U — lower, -2.2
- C96U C114U A150U — lower, -3.94
- C105U A138U — lower, -2.82
- C108A A121U — lower, ≤ -4.2
- U104G A142G G152U — lower, -3.73
- A110C A121U — lower, -4.04
- A107C C116G — lower, -3.74
- U102C U134G G136U A138U — lower, ≤ -4.2
- C99U G126U — higher, -0.0913
- C99A U146A — lower, -1.15
- C99A U146G — lower, -1.41
- U109G A115U C125A — lower, -4.05
- C96U G128U U146C — lower, -3.35
- A106G A120U A121G A122G G143C — lower, -2.43
- C96U A122G — higher, -0.14
- C96U A122C — higher, -0.314
- A98U A147C — higher, 0.168
- C99G A107C G143C — lower, ≤ -4.2
- A98U A107U C125A A147G — lower, ≤ -4.2
- C105U A106C — higher, 0.388
- A107G G141A — lower, -2.72
- A107G G141C — lower, -3.86
- C103U U134A — lower, -2.39
- U111A G124A U135C — lower, -3.76
- U104G A113U U127A G141A — lower, ≤ -4.2
- A107G G143U — lower, -3.81
- A97U C132A — lower, -2.65
- C99U G143C — lower, -2.66
- U109G U139C A142U — lower, -3.41
- A98U G136U — lower, -2.64
- C103G C123G G136U — lower, -2.77
- C99A C131G — lower, ≤ -4.2
- A107G A121U — lower, -4.18
- C103G G143U — lower, ≤ -4.2
- C96U G124U — higher, -0.372
- C96U G124A — higher, -0.382
- C99U U144A — within 0.2 log units, -1.02
- C99U A115C — lower, -1.19
- U102A C114U A115G A120U — lower, -3.62
- C99G U134C — within 0.2 log units, -0.713
- U101C — higher, 0.385
- U101G — higher, 0.557
- U101A — higher, 0.177
- A107U U109G — lower, ≤ -4.2
- U101G A138U — lower, -3.25
- U109G C125U C129U — lower, -4.06
- G100A A107U — lower, ≤ -4.2
- A97U U148C — lower, -1.51
- C105A G140U — lower, -4.11
- A98U A150C — lower, -2.82
- A98U C118U U144G — higher, 0.244
